Reference: patent publication US20220403363A1
Blank lines part the entries; values can stand above or below the substance they belong to.

What was measured:
[1] = test system: GlbD second part (from the T domain) with SZ18
[2] = test system: GlbD second part (from the T domain) without SZ
[3] = test system: SYNZIP18-gxpS_A3T3C/E4A4T4TE (protein encoded by plasmid pJW76)
[4] = test system: gxpS_A3T3C/E4A4T4TE without SYNZIP (protein encoded by plasmid pJW83)
[5] = molecular target: gxpS_A3T3C/E4A4T4TE without SYNZIP (protein encoded by plasmid pJW83); test: cell-based or functional assay
[6] = test system: T1, SYNZIP18-xtpS_T2C3A3T3C/E4A4T4TE (protein encoded by plasmid pNA5)
T1 sequence: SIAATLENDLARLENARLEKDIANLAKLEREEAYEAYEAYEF

[7] = test system: xtpS_T2-TE without SYNZIP (protein encoded by plasmid pNA12)
[8] = test system: T2, SYNZIP18-xtpS_A3T3C/E4A4T4TE (protein encoded by plasmid pJW62)
T2 sequence: T1 sequence

[9] = test system: xtpS_A3T3C/E4A4T4TE without SYNZIP (protein encoded by plasmid pJW64)

Substance: GlbD first part (up to the A domain) with SZ17
glidobactin A production by the PKS/NRPS hybrid with divided GlbD [1]: leads to a complete synthesis of the glidobactin peptide
glidobactin A production, negative control without one SZ [2]: In the negative controls without in each case one or both SZs, there is virtually no glidobactin A production

Substance: GlbD first part (up to the A domain) without SZ
glidobactin A production, negative control without one SZ [1]: In the negative controls without in each case one or both SZs, there is virtually no glidobactin A production
glidobactin A production, negative control without both SZs [2]: In the negative controls without in each case one or both SZs, there is virtually no glidobactin A production

Substance: ambS_A1T1C/E2A2T2C3-SYNZIP17 (protein encoded by plasmid pJW91)
peptide production by NRPS-3a in E. coli (HPLC-MS), peptides 7, 8 and 9 [3]: The peptides 7, 8 and 9, which eluted at a retention time of 6 min, 7.1 min and 7 min, could be identified on the basis of their mass
production of peptide 9 by NRPS-3b (no N-terminal SZ) relative to NRPS-3a (HPLC-MS) [4]: peptide 9 to ˜18%
production of peptides 7 and 8 by NRPS-3b (no N-terminal SZ) relative to NRPS-3a (HPLC-MS) [4]: 7 and 8 were only produced to ˜50%

Substance: szeS_C1A1T1C/E2A2T2C3-SYNZIP17 (protein encoded by plasmid pJW92)
peptide production by NRPS-4a in E. coli (HPLC-MS), peptides 10 and 11 [3]: Both the mass of 10 and the mass of 11 could be detected in the extracted ion chromatogram (EIC)

decrease of peptides 10 and 11 in NRPS-4b (no N-terminal SZ) against NRPS-4a (HPLC-MS) [5]: 80 % decrease
Substance: szeS_C1A1T1C/E2A2T2C3-SYNZIP17 (protein encoded by plasmid pJW92) (enzyme)

Substance: xldS_C1A1T1C/E2A2T2C3-SYNZIP17 (protein encoded by plasmid pJW93)
peptide production by NRPS-5a in E. coli (HPLC-MS) [3]: showed the production of most expected derivatives
peptide production by NRPS-5b (negative control without SZ18) against NRPS-5a (HPLC-MS) [4]: the negative control (NRPS-5b) showed no significant difference in peptide production from the NRPS-5a construct

Substance: xtpS_A1T1C/E2A2 without SYNZIP (protein encoded by plasmid pNA11)
decrease in productivity of NRPS-14c compared to NRPS-14a (told of the controls overall) [6]: Overall, the controls showed a decrease in productivity of 90% compared to NRPS-14a
production of peptides 2 and 1 by NRPS-14c (no C-terminal SZ), % of WT level (HPLC-MS) [6]: showed a very low production of the cyclic product 2 and absolutely no production of the linear peptide 1 at ˜3-10% of the WT level
decrease in productivity of NRPS-14d compared to NRPS-14a (told of the controls overall) [7]: Overall, the controls showed a decrease in productivity of 90% compared to NRPS-14a
production of peptides 2 and 1 by NRPS-14d (no SZs), % of WT level (HPLC-MS) [7]: showed a very low production of the cyclic product 2 and absolutely no production of the linear peptide 1 at ˜3-10% of the WT level

Substance: xtpS_A1T1C/E2A2T2C3 without SYNZIP (protein encoded by plasmid pJW63)
decrease in production of cyclic peptide 2 by NRPS-16c in relation to NRPS-16a (both SZs) [8]: control NRPS-16c shows a decrease in the production of cyclic peptide 2 by 80%
production of peptide 2 by NRPS-16c (no C-terminal SZ), % of WT level (HPLC-MS) [8]: NRPS-16c showed only a very low production of 2 with 3.2% of the WT level
peptide production by NRPS-16d (no SZs) (HPLC-MS) [9]: showed no peptide production for control experiments NRPS-16b and NRPS-16d

Substance: xtpS_A1T1C/E2A2T2C3-GS(4)-SYNZIP17 (protein encoded by plasmid pNA10)
increase in productivity for cyclic peptide 2 against the construct without linker (average over NRPS-15b, -15c, -15d) [8]: an average increase in productivity of ˜37% for cyclic 2 and ˜26% for linear peptide 1
increase in productivity for linear peptide 1 against the construct without linker (average over NRPS-15b, -15c, -15d) [8]: an average increase in productivity of ˜37% for cyclic 2 and ˜26% for linear peptide 1
production of cyclic product 2 by NRPS-15d (4 AS GS linker) (HPLC-MS) [8]: the cyclic product 2 with almost WT level was produced for all constructions with GS linker

Substance: xtpS_A1T1C/E2A2T2C3-GS(8)-SYNZIP17 (protein encoded by plasmid pNA9)
increase in productivity for cyclic peptide 2 against the construct without linker (average over NRPS-15b, -15c, -15d) [8]: an average increase in productivity of ˜37% for cyclic 2 and ˜26% for linear peptide 1
increase in productivity for linear peptide 1 against the construct without linker (average over NRPS-15b, -15c, -15d) [8]: an average increase in productivity of ˜37% for cyclic 2 and ˜26% for linear peptide 1
production of cyclic product 2 by NRPS-15c (8 AS GS linker) (HPLC-MS) [8]: the cyclic product 2 with almost WT level was produced for all constructions with GS linker

Substance: xtpS_A1T1C/E2A2T2C3-GS(10)-SYNZIP17 (protein encoded by plasmid pNA8)
increase in productivity for cyclic peptide 2 against the construct without linker (average over NRPS-15b, -15c, -15d) [8]: an average increase in productivity of ˜37% for cyclic 2 and ˜26% for linear peptide 1
increase in productivity for linear peptide 1 against the construct without linker (average over NRPS-15b, -15c, -15d) [8]: an average increase in productivity of ˜37% for cyclic 2 and ˜26% for linear peptide 1
production of cyclic product 2 by NRPS-15b (10 AS GS linker) (HPLC-MS) [8]: the cyclic product 2 with almost WT level was produced for all constructions with GS linker

Substance: xtpS_A1T1C/E2A2T2C3-SYNZIP19 (protein encoded by plasmid pNA1)
production of cyclic peptide 2 by NRPS-16 (C-A split, SZ19/18) relative to WT XtpS (HPLC-MS) [8]: 13% (NRPS-16)
production of linear peptide 1 by NRPS-16 (HPLC-MS) [8]: NRPS-16 showed no production of 1
peptide production by NRPS-16b (no N-terminal SZ) (HPLC-MS) [9]: showed no peptide production for control experiments NRPS-16b and NRPS-16d
